# B1: 5.15 (antibody, V domains shown)
# VH: GPGLLKPSETLSLTCAVSGDSISGGYYWSWIRQSPGKGLEWIGHIYGSTADTRYNPSLKSRVTISKDTSKNQLSLQLRSVTAADTAVYYCARSGYNFWSGEYYGLDSWGQGAVVTVAS
# VL: TQSPSSLSAYVGDKVTITCHASQGINSWLAWYQQKPGKAPKLLIYKASSLQSGVPSRFSGSGSGTDYTLTISSLQSEDFASYYCLQYDSAPLAFGPGTKLDIK
# B2: 5.20 (antibody, V domains shown)
# VH: GPGLLKPSETLSLTCAVSGDSISGGYYWSWIRQSPGKGLEWIGHIYGSTADTRYNPSLKSRVTISKDTRKNQLSLQLRSVTAADTAVYYCARSGYNFWSGEYYGLDSWGQGAVVTVSS
# VL: TQSPSSLSAYVGDKVTITCHASQGINSWLAWYQQKPGKAPKLLIYKASSLQSGVPSRFSGSGSGTDYTLTISSLQSEDFASYYCLQYDSAPLAFGPGTKLDIK
# B3: 35PA83 Fab (parent) (antibody, V domains shown)
# VH: GPGLLKPSETLSLTCAVSGDSISGGYYWSWIRQSPGKGLEWIGHIYGSTADTRYNPSLKSRVTISKDTSKNQLSLQLRSVTAADTAVYYCARSGYNFWSGEYYGLDSWGQGAVVTVSS
# VL: TQSPSSLSAYVGDKVTITCHASQGINSWLAWYQQKPGKAPKLLIYKASSLQSGVPSRFSGSGSGTDYTLTISSLQSEDFASYYCLQYDSAPLAFGPGTKLDIK
# B4: J24-15 (antibody, V domains shown)
# VH: QVQLQESGPGLLKPSETLSLTCAVSGDSISGGYYWSWIRQSPGKGLEWIGHIYGSTADTRYNPSLKSRVTISKDTSKNQLSLQLRSVTAADTAVYYCARSGYNFWSGEYYGLDLWGQGAVVTVSS
# VL: AIQLTQSPSSLSAYVGDKVTITCHASQGINSWLAWYQQKPGKAPKLLIYKARSLQSGVPSRFSGSGSGTDYTLTISSLQSEDFASYYCLQYDSAPLAFGPGTKLDIK
# B5: v2 (antibody, V domains shown)
# VH: QVQLQESGPGLLKPSETLSLTCAVSGDSISSGYYWSWIRQSPGKGLEWIGHIYGSTADTKYNPSLRSRVTISKDTSKNQLSLQLRSVTAADTAVYYCARSGYNFWSGEYYGLDSWGQGAVVTVSS
# VL: AIQLTQSPSSLSAYVGDKVTITCHASQGINSWLAWYQQKPGKAPKLLIYKASSLQSGVPSRFSGSGSGTDYTLTISSLQSEDFASYYCLQYDSAPLAFGPGTKLDIK
# B6: J24-7 (antibody, V domains shown)
# VH: QVQLQESGPGLLKPSETLSLTCAVSGDSISGGYYWSWIRQSPGKGLEWIGHIYGSTADTRYNPSLKSRVTISKDTSKNQLSLQLRSVTAADTAVYYCARSGYNFWSGEYYGLDSWGQGAVVTVSS
# VL: AIQLTQSPSSLSAYVGDKVTITCRASQGINSWLAWYQQKPGKAPKLLIYKASSLQEGVPSRFSGSGSGTDYTLTISSLQSEDFASYYCLQYDSAPLAFGPGTKLDIK
# Target: PA83 protective antigen (Bacillus anthracis, UniProt P13423)
# Experiment: SPR
# Target sequence in this assay (P13423 30-764): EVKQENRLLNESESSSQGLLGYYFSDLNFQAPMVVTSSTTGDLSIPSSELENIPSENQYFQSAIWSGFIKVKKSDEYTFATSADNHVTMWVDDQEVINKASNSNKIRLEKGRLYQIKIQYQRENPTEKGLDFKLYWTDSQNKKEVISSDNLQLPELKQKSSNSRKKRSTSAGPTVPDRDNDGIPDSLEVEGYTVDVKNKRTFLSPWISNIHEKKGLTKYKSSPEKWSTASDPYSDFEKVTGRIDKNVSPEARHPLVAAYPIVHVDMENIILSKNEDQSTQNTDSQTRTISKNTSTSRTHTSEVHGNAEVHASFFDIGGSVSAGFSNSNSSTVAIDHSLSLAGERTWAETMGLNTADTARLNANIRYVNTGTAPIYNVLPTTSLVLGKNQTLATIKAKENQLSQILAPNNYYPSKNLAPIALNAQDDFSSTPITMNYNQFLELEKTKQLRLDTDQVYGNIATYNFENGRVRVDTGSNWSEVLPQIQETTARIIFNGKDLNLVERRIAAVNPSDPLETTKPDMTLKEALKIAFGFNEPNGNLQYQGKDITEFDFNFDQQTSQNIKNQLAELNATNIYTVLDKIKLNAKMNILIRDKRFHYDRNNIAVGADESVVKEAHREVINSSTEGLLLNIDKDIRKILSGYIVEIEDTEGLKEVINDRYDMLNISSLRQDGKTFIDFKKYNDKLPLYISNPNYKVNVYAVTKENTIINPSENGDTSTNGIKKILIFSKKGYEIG
row,Binder,Kd [nM]
1,B1,3.5
2,B2,12.2

# Target: PA83 protective antigen (Bacillus anthracis, UniProt P13423)
# Experiment: SPR
# Remark: another data set of the same source
# Target sequence in this assay (P13423 30-764): as above
row,Binder,Kd [nM]
1,B3,3.4
2,B4,0.88
3,B5,0.66
4,B6,0.78
